In the supplement of paper PMC7877785:
± gives the uncertainty stated by the source.

Experiment: self-splicing fitness, log relative to wild type (ln ratio); higher = more splicing; Tetrahymena group I intron in knt gene, E. coli kanamycin selection, DiMSum; sequences stand for … in CUCUCU…GGAGGGAAAAGUUAUCAGGCAUGCACCUGGUAGCUAGUCUUUAAACCAAUAGAUUGCAUCGGUUUAAAAGGCAAGACCGUCAAAUUGCGGGAAAGGGGUCAACAGCCGUUCAGUACCAAGUCUCAGGGGAAACUUUGAGAUGGCCUUGCAAAGGGUAUGGUAAUAAGCUGACGGACAUGGUCCUAACCACGCAGCCAAGUCCUAAGUCAACAGAUCUUCUGUUGAUAUGGAUGCAGUUCACAGACUAAAUGUCGGUCGGGGAAGAUGUAUUCUUCUCAUAAGAUAUAGUCGGACCUCUCCUUAAUGGGAGCUAGCGGAUGAAGUGAUGCAACACUGGAGCCGCUGGGAACUAAUUUGUAUGCGAAAGUAUAUUGAUUAGUUUUGGAGUACUCGUGGUCG
Procedure, shortened: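 A randomised library covering all eight P1ex-region intron nucleotides was built with the intron in the knt kanamycin-resistance gene on pET-22b(+) and held in E. coli BL21(DE3). Cells were grown overnight at 37°C or 30°C on LB agar, with or without 25 μg/mL kanamycin, plus 100 μg/mL carbenicillin, 50 μM IPTG and 0.2% rhamnose, and pooled colonies were amplicon-sequenced on an Illumina HiSeq 2500. DiMSum fitness is the error-weighted combination of wild-type-normalised replicate fold changes, kanamycin versus none.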

| Sequence | self-splicing fitness (ln) (30 °C) | self-splicing fitness (ln) (37 °C) |
| --- | --- | --- |
| AAAUAGCAAUAUUACGGAUA | -2.19 ± 0.2 | -1.1 ± 0.16 |
| UAAGAGCAAUAUUACGUACG | -1.42 ± 0.16 | -1.73 ± 0.17 |
| AUCGAGCAAUAUUACGGUUG | -3.96 ± 0.42 | -3.32 ± 0.37 |
| CGGCAGCAAUAUUACGACAG | 0.187 ± 0.11 | -1.27 ± 0.12 |
| GGGAAGCAAUAUUACGAAGC | -2.84 ± 0.23 | -1.75 ± 0.34 |
| GGUCAGCAAUAUUACGGCUU | -1.18 ± 0.087 | -0.0465 ± 0.12 |
| AAUAAGCAAUAUUACGCUGC | -3.69 ± 0.3 | -2.67 ± 0.38 |
| UAUCAGCAAUAUUACGGCUC | -1.86 ± 0.17 | -0.563 ± 0.18 |
| GCCGAGCAAUAUUACGCACG | -3.74 ± 0.35 | -1.49 ± 0.36 |
| CGUAAGCAAUAUUACGGCGG | -0.217 ± 0.072 | -0.126 ± 0.096 |
| GCUAAGCAAUAUUACGACGU | -0.0363 ± 0.17 | 0.155 ± 0.19 |
| AAGUAGCAAUAUUACGGCAU | -0.18 ± 0.094 | 0.382 ± 0.12 |
| CCUGAGCAAUAUUACGGCGG | -2.37 ± 0.13 | -1.92 ± 0.17 |
| CGCAAGCAAUAUUACGCAGA | -2.26 ± 0.15 | -1.78 ± 0.16 |
| AUUCAGCAAUAUUACGCUGA | -3.06 ± 0.28 | -2.6 ± 0.26 |
| AUGAAGCAAUAUUACGGGGA | -2.4 ± 0.15 | -1.31 ± 0.17 |
| CCCAAGCAAUAUUACGAAUC | -2.81 ± 0.24 | -2.36 ± 0.27 |
| UGCCAGCAAUAUUACGCACG | -1.48 ± 0.2 | -0.233 ± 0.14 |
| CGACAGCAAUAUUACGUCUG | -1.54 ± 0.083 | -0.38 ± 0.092 |
| UUCUAGCAAUAUUACGAGUG | 0.0611 ± 0.065 | 0.118 ± 0.094 |
| UUCCAGCAAUAUUACGGCAC | -2.78 ± 0.21 | -0.351 ± 0.2 |
| UAGGAGCAAUAUUACGAGGC | -2.87 ± 0.17 | -3 ± 0.29 |
| CAUCAGCAAUAUUACGGCUC | -1.91 ± 0.1 | -1.1 ± 0.12 |
| UACGAGCAAUAUUACGGCUG | -0.628 ± 0.077 | -0.0702 ± 0.1 |
| CUACAGCAAUAUUACGUUUC | -3.69 ± 0.16 | -2.7 ± 0.21 |

| Sequence | self-splicing fitness (ln) (30 °C) | self-splicing fitness (ln) (37 °C) |
| --- | --- | --- |
| UCCAAGCAAUAUUACGCUUU | -3.8 ± 0.18 | -2.16 ± 0.19 |
| GCUAAGCAAUAUUACGCACU | -0.54 ± 0.071 | 0.421 ± 0.11 |
| UUGGAGCAAUAUUACGUGGG | -2.17 ± 0.33 |  |
| GACUAGCAAUAUUACGUCAA | -2.55 ± 0.16 | -2 ± 0.12 |
| ACCCAGCAAUAUUACGUUGU | -0.339 ± 0.043 | -0.0259 ± 0.057 |
| GCAGAGCAAUAUUACGACGU | -0.995 ± 0.14 | -1.5 ± 0.18 |
| CAGCAGCAAUAUUACGGCAG | -0.983 ± 0.079 | -0.261 ± 0.11 |
| GUCUAGCAAUAUUACGGCAU | -0.166 ± 0.092 | 0.88 ± 0.11 |
| CUGGAGCAAUAUUACGGUGU | -4.16 ± 0.36 | -2.02 ± 0.2 |
| ACGGAGCAAUAUUACGCUCG | -1.67 ± 0.14 | -1.01 ± 0.16 |
| AGUGAGCAAUAUUACGUGAU | -2.87 ± 0.26 | -2.74 ± 0.34 |
| ACCAAGCAAUAUUACGAUUG | -2.86 ± 0.13 | -3.02 ± 0.16 |
| UUCUAGCAAUAUUACGAAGC |  | -1.2 ± 0.45 |
| CCUAAGCAAUAUUACGUGAG | -1.2 ± 0.057 | -0.711 ± 0.076 |
| ACCAAGCAAUAUUACGUACA | -1.46 ± 0.079 | -1.05 ± 0.085 |
| GCCCAGCAAUAUUACGACGC | -0.00307 ± 0.052 | -0.0866 ± 0.067 |
| CUGUAGCAAUAUUACGACCG | -0.99 ± 0.34 | 0.0218 ± 0.25 |
| CUCAAGCAAUAUUACGUAGC | -4.09 ± 0.25 | -2.59 ± 0.22 |
| UACCAGCAAUAUUACGAUCC | -1.4 ± 0.15 | -1.84 ± 0.26 |
| AGCCAGCAAUAUUACGCGUC | -2.8 ± 0.13 | -1.23 ± 0.12 |
| CCUAAGCAAUAUUACGAGCU | -2.2 ± 0.33 | -1.93 ± 0.27 |
| AACGAGCAAUAUUACGCACC | -2.32 ± 0.42 | -1.65 ± 0.35 |
| AUUUAGCAAUAUUACGUAAC | -2.52 ± 0.18 | -2.58 ± 0.2 |
| UGAUAGCAAUAUUACGAACU | -1.03 ± 0.12 | 0.402 ± 0.11 |
| AAACAGCAAUAUUACGAGCA | -1.76 ± 0.091 | -1.09 ± 0.082 |

| Sequence | self-splicing fitness (ln) (30 °C) | self-splicing fitness (ln) (37 °C) |
| --- | --- | --- |
| GUCUAGCAAUAUUACGGGUG | -1.28 ± 0.05 | -0.553 ± 0.058 |
| GUUUAGCAAUAUUACGUGAA | -1.35 ± 0.12 | -2.04 ± 0.18 |
| GCGUAGCAAUAUUACGGUGC | -3.73 ± 0.32 | -2.95 ± 0.47 |
| AUAAAGCAAUAUUACGCGUA | -0.873 ± 0.079 | -0.0465 ± 0.091 |
| AAAAAGCAAUAUUACGGAGC | -3.4 ± 0.2 | -2.1 ± 0.18 |
| GGCGAGCAAUAUUACGGGGC | -3.65 ± 0.29 | -2.96 ± 0.34 |
| UGUGAGCAAUAUUACGUUCA | -3.06 ± 0.31 | -1.56 ± 0.39 |
| GAGGAGCAAUAUUACGGCGG | -2.33 ± 0.2 | -1.7 ± 0.38 |
| UGAUAGCAAUAUUACGGUUG | -0.902 ± 0.072 | 0.392 ± 0.11 |
| GUUGAGCAAUAUUACGGUCU | -3.49 ± 0.21 | -2.56 ± 0.18 |
| CAAAAGCAAUAUUACGGUAU | -3.42 ± 0.15 | -2.67 ± 0.15 |
| CCCAAGCAAUAUUACGUAGA | -3.94 ± 0.17 | -3.16 ± 0.18 |
| AUGGAGCAAUAUUACGGCUC | -2.53 ± 0.45 |  |
| AAGAAGCAAUAUUACGUGCA | -0.663 ± 0.08 | -0.0733 ± 0.1 |
| GACUAGCAAUAUUACGUUCU | -3.33 ± 0.26 | -0.968 ± 0.14 |
| AUGCAGCAAUAUUACGCUUU | -2.72 ± 0.11 | -1.75 ± 0.11 |
| UCCUAGCAAUAUUACGCUAC | -2.35 ± 0.15 | -0.883 ± 0.3 |
| UUACAGCAAUAUUACGGGCG | -0.655 ± 0.051 | 0.0547 ± 0.066 |
| CGGUAGCAAUAUUACGACCA | -0.494 ± 0.17 | -0.426 ± 0.14 |
| GUUAAGCAAUAUUACGUUGA | -3.87 ± 0.33 | -1.43 ± 0.25 |
| GCAAAGCAAUAUUACGUAGA | -1.64 ± 0.074 | -1.13 ± 0.095 |
| UCUGAGCAAUAUUACGUUGA | -1.89 ± 0.1 | -0.656 ± 0.085 |
| ACGCAGCAAUAUUACGAUAC | -2.56 ± 0.2 | -1.87 ± 0.19 |
| CUAAAGCAAUAUUACGCCGU | -3.75 ± 0.27 | -2.39 ± 0.25 |
| AGGGAGCAAUAUUACGUGAA | -3.18 ± 0.32 | -2.53 ± 0.3 |

| Sequence | self-splicing fitness (ln) (30 °C) | self-splicing fitness (ln) (37 °C) |
| --- | --- | --- |
| GUGUAGCAAUAUUACGUUGC | -1.92 ± 0.22 | -2.28 ± 0.46 |
| CUUUAGCAAUAUUACGGCAG | -0.944 ± 0.12 | -0.552 ± 0.14 |
| UUCCAGCAAUAUUACGUACC | -2.05 ± 0.24 | -1.71 ± 0.31 |
| CUCGAGCAAUAUUACGGUUU | -3.87 ± 0.27 |  |
| UGCGAGCAAUAUUACGGAGG |  | -1.17 ± 0.18 |
| UCGUAGCAAUAUUACGAAGC |  | -1.29 ± 0.35 |
| CAUUAGCAAUAUUACGUUUA | -1.42 ± 0.15 | -1.48 ± 0.15 |
| ACUUAGCAAUAUUACGCUUU | -1.69 ± 0.088 | -1.42 ± 0.14 |
| UAUUAGCAAUAUUACGCUCG | -0.476 ± 0.17 | 0.237 ± 0.2 |
| AGGAAGCAAUAUUACGUUCC | -2.96 ± 0.39 | -2.59 ± 0.48 |
| AAACAGCAAUAUUACGUAUU | -2.17 ± 0.089 | -1.53 ± 0.097 |
| GUCAAGCAAUAUUACGUUGU | -3.69 ± 0.13 | -2.76 ± 0.13 |
| CAGAAGCAAUAUUACGAACU | -2.12 ± 0.13 | -1.72 ± 0.17 |
| GUCUAGCAAUAUUACGCGUC | -2.18 ± 0.099 | -0.0852 ± 0.1 |
| UACAAGCAAUAUUACGUAAU | -2.72 ± 0.18 | -0.0213 ± 0.15 |
| AUCUAGCAAUAUUACGGGGA | -1.48 ± 0.073 | -1.03 ± 0.087 |
| GUGCAGCAAUAUUACGAUAU | -0.385 ± 0.091 | -0.244 ± 0.12 |
| CAUCAGCAAUAUUACGCUCC | -2.75 ± 0.24 | -2.3 ± 0.28 |
| AGAUAGCAAUAUUACGUACC | -0.423 ± 0.13 | 0.0629 ± 0.14 |
| UUUCAGCAAUAUUACGAGAU |  | -2.72 ± 0.48 |
| UGGCAGCAAUAUUACGCAUC | -1.93 ± 0.18 | -1.65 ± 0.16 |
| GAUAAGCAAUAUUACGCCGA | -2.01 ± 0.18 | -1.14 ± 0.22 |
